Positions of bridges follow the written chain, without caps; N, C: chain ends.
Biological target: T1, human IL-5Rα extracellular domain (Homo sapiens, UniProt Q01344)
T1 construct: human IL-5Rα extracellular domain harvest; made in house; host or cells: CHO cells
T1 sequence (Q01344 21-342 limits assumed): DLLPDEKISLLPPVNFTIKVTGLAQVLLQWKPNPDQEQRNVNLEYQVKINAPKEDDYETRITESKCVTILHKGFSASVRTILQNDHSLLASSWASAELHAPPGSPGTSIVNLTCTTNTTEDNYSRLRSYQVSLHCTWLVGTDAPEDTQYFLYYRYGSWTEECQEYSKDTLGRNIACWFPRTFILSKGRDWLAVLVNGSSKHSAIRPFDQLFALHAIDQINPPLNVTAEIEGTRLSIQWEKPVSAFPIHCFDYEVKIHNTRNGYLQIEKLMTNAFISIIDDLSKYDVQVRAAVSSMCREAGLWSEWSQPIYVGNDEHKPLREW
Assay: IL-5 receptor-ligand Alpha Quest binding assay (alanine scan of AF17121, FIG. 1)
Details: relative to parent monomer AF17121 (SEQ ID NO:1); single Ala substitution
Procedure: The affinity of compounds for the IL-5 receptor was tested in a homogeneous Alpha Quest binding assay. The peptides tested were solubilized at approximately 10 mM in DMSO. Each peptide was then serially diluted into freshly made, sterile filtered assay buffer (40 mM Hepes, pH 7.4 with NaOH, containing 1 mM MgCl2, 0.1% BSA and 0.05% Tween-20). Four microliters of each test compound dilution was transferred in triplicate to a 384-well, low volume, white, polypropylene Griener plate (E&K Scientific #31075). A mixture was prepared in assay buffer containing Packard Bioscience AlphaScreen streptavidin coated donor beads at […], MAb179 (prepared as described in Whitehom, E., A Generic Method for Expression and Use of “Tagged” Soluble Versions of Cell Surface Receptor, Biotechnolgy 1995, 13, 1215-1219) conjugated Packard Bioscience Alpha Screen acceptor beads per manufactures protocol, at 40 ug/mL, and human IL-5Rα extracellular domain harvest with a MAb 179 epitope tag prepared as previously described (England, B., A Potent Dimeric Peptide Antagonist of Interleukin-5 that Binds Two Interleukin-5 Receptor α Chains, PNAS, vol.97, no. 12, 6862-6867). Two microliters of beads and receptor harvest mixture were added to each assay well. Alpha Quest beads are light sensitive so all steps after the introduction of the beads were carried out under green lighting (lights adapted with Roscolux Chroma Green #389 filter sleeves which transmit <1% at 680 nm). After a 5-10 minute room temperature incubation, two microliters of 62.4 nM biotinylated MBP-AF12368, GEVCTRDVANHRWMCGVD (SEQ ID NO 73), tracer peptide (prepared as described in Schatz P., Use of Peptide Libraries to Map the Substrate Specificity of a Peptide-Modifying Enzyme: A 13 Residue Consensus Peptide Specifies Biotinylation in Escherichia coli, Biotechnology 1993, 11, 1138-1143) diluted in assay buffer was added to each well. The assay plate was spun to 55 rpm in a plate centrifuge, sealed with Packard Top Seal, wrapped in foil and placed in a room temperature incubator in the instrument room. The plate was read after 16-20 hours using a Packard Bioscience Alpha Quest Discovery™ plate reader.
Results for various compound embodiments of the invention are depicted in FIGS. 1-4 and 6-8.
In the case of “Ac-Val Asp Ala Cys Trp Arg Ile Ile Ala Ser His Thr Trp Phe Cys Ala Glu Glu-NH2 (Ac-VDACWRIIASHTWFCAEE-NH2; not fully specified (bridges); printed as Ac-Val Asp Ala Cys Trp Arg Ile Ile Ala Ser His Thr Trp Phe Cys Ala Glu Glu-NH2; cysteine pairing not given here) [AF35918]”, the “more potent (peptide monomer with single alanine substitution)” value is reported as “about 675%”.
In the case of “Ac-VDECWRIIASHAWFCAEE-NH2 (cysteine pairing not given here) [AF35910]”, the “more potent (peptide monomer with single alanine substitution)” value is reported as “about 135%”.
In the case of “Ac-VDECWRIIAAHTWFCAEE-NH2 (cysteine pairing not given here) [AF35912]”, the “more potent (peptide monomer with single alanine substitution)” value is reported as “about 450%”.
For “Ac-ADECWRIIASHTWFCAEE-NH2 (cysteine pairing not given here) [AF35921]”, the “more potent (peptide monomer with single alanine substitution)” value was “about 350%”.
For “Ac-Val Ala Glu Cys Trp Arg Ile Ile Ala Ser His Thr Trp Phe Cys Ala Glu Glu-NH2 (Ac-VAECWRIIASHTWFCAEE-NH2; not fully specified (bridges); printed as Ac-Val Ala Glu Cys Trp Arg Ile Ile Ala Ser His Thr Trp Phe Cys Ala Glu Glu-NH2; cysteine pairing not given here) [AF35920]”, the “more potent (peptide monomer with single alanine substitution)” value was “about 200%”.

Biological target: T2, human IL-5 receptor (Homo sapiens, UniProt P32927+Q01344)
T2 construct: endogenous in cells; host or cells: HL60 subclone induced towards eosinophil differentiation with sodium butyrate
T2 sequence (Q01344 21-420): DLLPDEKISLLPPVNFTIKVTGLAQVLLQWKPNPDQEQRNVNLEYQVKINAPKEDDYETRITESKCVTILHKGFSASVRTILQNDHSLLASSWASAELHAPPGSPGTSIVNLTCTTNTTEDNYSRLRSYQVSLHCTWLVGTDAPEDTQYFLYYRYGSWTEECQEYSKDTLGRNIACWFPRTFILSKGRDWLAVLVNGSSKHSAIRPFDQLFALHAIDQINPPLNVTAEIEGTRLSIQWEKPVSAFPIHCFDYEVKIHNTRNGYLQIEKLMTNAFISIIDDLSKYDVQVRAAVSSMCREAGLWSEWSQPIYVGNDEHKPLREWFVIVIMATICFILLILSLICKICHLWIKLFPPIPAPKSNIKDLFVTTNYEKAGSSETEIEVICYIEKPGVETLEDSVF
T2 sequence (P32927 17-897): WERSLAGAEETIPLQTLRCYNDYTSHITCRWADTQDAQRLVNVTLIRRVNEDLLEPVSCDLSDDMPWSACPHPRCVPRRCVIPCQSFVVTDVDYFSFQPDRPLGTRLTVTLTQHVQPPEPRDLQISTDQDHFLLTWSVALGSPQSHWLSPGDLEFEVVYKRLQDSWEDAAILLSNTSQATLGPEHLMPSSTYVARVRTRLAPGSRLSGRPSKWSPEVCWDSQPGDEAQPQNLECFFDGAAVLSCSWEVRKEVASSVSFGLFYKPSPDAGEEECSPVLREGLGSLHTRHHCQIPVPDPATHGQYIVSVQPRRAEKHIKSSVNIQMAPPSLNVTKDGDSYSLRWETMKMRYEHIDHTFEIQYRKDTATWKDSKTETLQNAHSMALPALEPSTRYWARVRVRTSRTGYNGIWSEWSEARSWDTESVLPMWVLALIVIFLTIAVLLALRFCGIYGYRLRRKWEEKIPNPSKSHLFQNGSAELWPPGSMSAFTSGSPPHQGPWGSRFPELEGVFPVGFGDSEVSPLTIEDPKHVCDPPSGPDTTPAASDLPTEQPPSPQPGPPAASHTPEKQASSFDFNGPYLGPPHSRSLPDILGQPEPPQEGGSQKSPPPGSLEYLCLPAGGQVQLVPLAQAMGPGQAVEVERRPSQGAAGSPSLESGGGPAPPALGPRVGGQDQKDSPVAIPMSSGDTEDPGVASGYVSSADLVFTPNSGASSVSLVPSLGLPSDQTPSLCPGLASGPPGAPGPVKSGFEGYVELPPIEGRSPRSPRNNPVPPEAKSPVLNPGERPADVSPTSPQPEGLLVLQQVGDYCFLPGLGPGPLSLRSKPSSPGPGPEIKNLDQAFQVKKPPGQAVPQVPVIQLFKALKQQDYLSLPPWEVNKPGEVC
Assay: not given
Details: high affinity IL-5 binding sites; HL60 subclone, eosinophilic differentiation initiated with sodium butyrate; cited from earlier work
In the case of “IL-5: lymphokine secreted by T cells and mast cells, having biological activities on B cells and eosinophils”, the Kd is listed as 0.03 nM.

Biological target: T3, human IL-5Rα extracellular domain harvest with a MAb 179 epitope tag (human, UniProt Q01344 21-342)
T3 construct: extracellular domain; Captured on MAb179-conjugated AlphaScreen acceptor beads; also called IL-5 receptor; IL-5R-α chain ECD
T3 sequence (looked up): T1 sequence (Q01344 21-342 limits assumed)
Assay: alanine scan of AF17121, AlphaQuest competition binding assay on human IL-5Rα ECD with the tracer biotinylated MBP-AF12368 (the assay is named by FIG. 1, not by the sentence)
Details: not given
Procedure: The affinity of compounds for the IL-5 receptor was tested in a homogeneous Alpha Quest binding assay. The peptides tested were solubilized at approximately 10 mM in DMSO. Each peptide was then serially diluted into freshly made, sterile filtered assay buffer (40 mM Hepes, pH 7.4 with NaOH, containing 1 mM MgCl₂, 0.1% BSA and 0.05% Tween-20). Four microliters of each test compound dilution was transferred in triplicate to a 384-well, low volume, white, polypropylene Griener plate (E&K Scientific #31075). A mixture was prepared in assay buffer containing Packard Bioscience AlphaScreen streptavidin coated donor beads at […], MAb179 (prepared as described in Whitehom, E., A Generic Method for Expression and Use of “Tagged” Soluble Versions of Cell Surface Receptor, Biotechnolgy 1995, 13, 1215-1219) conjugated Packard Bioscience Alpha Screen acceptor beads per manufactures protocol, at 40 ug/mL, and human IL-5Rα extracellular domain harvest with a MAb 179 epitope tag prepared as previously described (England, B., A Potent Dimeric Peptide Antagonist of Interleukin-5 that Binds Two Interleukin-5 Receptor α Chains, PNAS, vol.97, no. 12, 6862-6867). Two microliters of beads and receptor harvest mixture were added to each assay well. Alpha Quest beads are light sensitive so all steps after the introduction of the beads were carried out under green lighting (lights adapted with Roscolux Chroma Green #389 filter sleeves which transmit <1% at 680 nm). After a 5-10 minute room temperature incubation, two microliters of 62.4 nM biotinylated MBP-AF12368, […] (SEQ ID NO 73), tracer peptide (prepared as described in Schatz P., Use of Peptide Libraries to Map the Substrate Specificity of a Peptide-Modifying Enzyme: A 13 Residue Consensus Peptide Specifies Biotinylation in Escherichia coli, Biotechnology 1993, 11, 1138-1143) diluted in assay buffer was added to each well. The assay plate was spun to 55 rpm in a plate centrifuge, sealed with Packard Top Seal, wrapped in foil and placed in a room temperature incubator in the instrument room. The plate was read after 16-20 hours using a Packard Bioscience Alpha Quest Discovery™ plate reader.
In the case of Ac-VDECWRIIASHAWFCAEE-NH2 (disulfide 4-15 (inferred)) [AF35910 (Ac-Val Asp Glu Cys Trp Arg Ile Ile Ala Ser His Ala Trp Phe Cys Ala Glu Glu-NH2)], the “percent more potent than AF17121 (SEQ ID NO: 1)” value is reported as roughly 135%.
In the case of Ac-VDACWRIIASHTWFCAEE-NH2 (disulfide 4-15 (inferred)) [AF35918 (Ac-Val Asp Ala Cys Trp Arg Ile Ile Ala Ser His Thr Trp Phe Cys Ala Glu Glu-NH2)], the “percent more potent than AF17121 (SEQ ID NO: 1)” value is reported as roughly 675%.
In the case of Ac-VAECWRIIASHTWFCAEE-NH2 (disulfide 4-15 (inferred)) [AF35920 (Ac-Val Ala Glu Cys Trp Arg Ile Ile Ala Ser His Thr Trp Phe Cys Ala Glu Glu-NH2)], the “percent more potent than AF17121 (SEQ ID NO: 1)” value is reported as roughly 200%.
For Ac-VDECWRIIAAHTWFCAEE-NH2 (disulfide 4-15 (inferred)) [AF35912 (Ac-Val Asp Glu Cys Trp Arg Ile Ile Ala Ala His Thr Trp Phe Cys Ala Glu Glu-NH2)], the “percent more potent than AF17121 (SEQ ID NO: 1)” value was roughly 450%.
In the case of Ac-ADECWRIIASHTWFCAEE-NH2 (disulfide 4-15 (inferred)) [AF35921 (Ac-Ala Asp Glu Cys Trp Arg Ile Ile Ala Ser His Thr Trp Phe Cys Ala Glu Glu-NH2)], the “percent more potent than AF17121 (SEQ ID NO: 1)” value is reported as roughly 350%.

Reference: patent publication US20060014680A1, “Peptides and compounds that bind to the IL-5 receptor” (priority 2004, published 2006)
